Results as given in patent US20230340081A1 (Hoffmann-La Roche, published 2023).

T1: consensus S-HBs protein of HBV genotype I (ConsHBAg_I) (hepatitis B virus genotype I (consensus), UniProt P31873 175-400)
T1 construct: also called genotype I S-HBs
T1 chain: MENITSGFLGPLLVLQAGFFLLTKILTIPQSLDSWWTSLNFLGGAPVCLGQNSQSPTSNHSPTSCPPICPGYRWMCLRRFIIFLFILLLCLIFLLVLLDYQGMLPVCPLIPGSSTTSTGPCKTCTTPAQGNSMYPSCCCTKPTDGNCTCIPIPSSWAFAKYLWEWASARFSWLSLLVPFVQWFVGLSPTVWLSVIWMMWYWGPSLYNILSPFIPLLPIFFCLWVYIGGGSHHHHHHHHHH

T2: consensus S-HBs protein of HBV genotype E (ConsHBAg_E) (hepatitis B virus genotype E (consensus), UniProt Q69603 174-399)
T2 construct: also called genotype E S-HBs
T2 chain: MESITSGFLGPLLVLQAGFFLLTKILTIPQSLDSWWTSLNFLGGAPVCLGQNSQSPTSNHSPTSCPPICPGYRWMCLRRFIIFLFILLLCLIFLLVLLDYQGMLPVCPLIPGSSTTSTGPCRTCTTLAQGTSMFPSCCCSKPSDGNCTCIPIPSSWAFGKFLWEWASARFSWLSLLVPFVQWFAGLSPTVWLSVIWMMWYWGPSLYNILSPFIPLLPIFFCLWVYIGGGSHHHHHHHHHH

B1: Bv4.115 (antibody)
heavy: not shown
light: DIQMTQSPSTLSASVGDRVTITCRASQSINTWLAWYQQKPGKAPKLLISKASSLESGVPSRFSGSGSGTEFTLSISSLQPDDFATYYCQQYNTFSFGQGTKLEIKRTVAAPSVFIFPPSDEQLKSGTASVVCLLNNFYPREAKVQWKVDNALQSGNSQESVTEQDSKDSTYSLSSTLTLSKADYEKHKVYACEVTHQGLSSPVTKSFNRGEC
B2: Bc1.229 (antibody, V domains shown)
VH: QVQLVESGGGVVQPGRSLRVSCAASGFTFSNYGMHWVRQAPGKGLEWLAVIWNDGSNKYYADSVKGRFIISRDNSKNTLYLQMNSLGAEDTAMYYCAREGLTSVTMLDSWGQGALVTVSS
VL: DIQMTQSPSSLSASVGDRVTITCRASQYISSFLNWYQQKPGKAPKLLIHVASSLQSGVPSRFSGSGSGTHFTLTISSLQPEDFATYYCQQSYSTPLFTFGPGTKVDIKR
B3: Bv4.105 (antibody, V domains shown)
VH: QVQLVESGGGLVQSGRSLRLSCSAFGFTFGDYPIMWVRLAPGKGLEWVGFIRSKAYGGTAEYAASVKGRFTTSRDDSRSTAYLQMNSLKTEDTAVYYCTREGGHSGFWSGFNKIPTFDYWGQGSLVTVSS
VL: DIQMTQSPSSLSASIGDRVSITCRASETIRTYLNWYQHKPGKAPQLLIYAASSVQSGVPSRFSGSGSGTDFTLTISNLQPEDFATYYCQQSYTSPWVTFGPGTKVDIKR
B4: Bc1.263 (antibody, human IgG1, kappa, V domains shown)
VH: QVQLVQSGAEVKKPGSSVKVSCRASGGTFSNYGVNWVRQAPGQGLEWMGKIIPILGIVNYAQKFQGRVTITADKSTSTAYMELSSLRSEDTAVYYCARDRGGKPLYSYGYGLDYWGQGTLVTVSS
VL: EIVLTQSPATLSLSPGERATLSCRASLSVSTYLAWYQKKPGQPPRLLIYDASKRATGIPARFSGSGSGTDFTLTISSLEPEDFAVYYCQQRSTTFGQGTKVEIKR
B5: Bc8.111 (antibody)
heavy: not shown
light: QSVLTQPHSVSESPGKTVTISCTRSSGSIASNYVQWYQQRPGSAPTTVIYEDNERPSGVPARFSGSIDSSSNSASLTISGLKTEDEADYYCQSYESSNWVFGGGTKLTVLGQPKAAPSVTLFPPSSEELQANKATLVCLISDFYPGAVTVAWKADSSPVKAGVETTTPSKQSNNKYAASSYLSLTPEQWKSHRSYSCQVTHEGSTVEKTVAPTECS

What was measured:
[1] = target: HBV genotype D viruses (produced in HepG2.2.15 cell culture supernatant) (hepatitis B virus genotype D); experiment: cell-based or functional assay
[2] = target: genotype D S-HBs mutant protein Y134V (hepatitis B virus genotype D, UniProt P03138 164-389); experiment: flow cytometry, S-HBs-transfected 293-F cells
[3] = target: T3, consensus S-HBs protein of HBV genotype G (ConsHBAg_G) (hepatitis B virus genotype G (consensus), UniProt Q9IBI3 174-399); experiment: flow cytometry, S-HBs-transfected 293-F cells
T3 construct: also called genotype G S-HBs

[4] = target: T1, consensus S-HBs protein of HBV genotype …; experiment: flow cytometry, S-HBs-transfected 293-F cells
[5] = target: T4, consensus S-HBs protein of HBV genotype C (ConsHBAg_C) (hepatitis B virus genotype C (consensus), UniProt P03140 175-400); experiment: flow cytometry, S-HBs-transfected 293-F cells
T4 construct: also called genotype C S-HBs

[6] = target: genotype D S-HBs mutant protein M133T (hepatitis B virus genotype D, UniProt P03138 164-389); experiment: flow cytometry, S-HBs-transfected 293-F cells
[7] = target: T5, consensus S-HBs protein of HBV genotype F (ConsHBAg_F) (hepatitis B virus genotype F (consensus), UniProt Q05496 175-400); experiment: flow cytometry, S-HBs-transfected 293-F cells
T5 construct: also called genotype F S-HBs
T5 sequence (Q05496 175-400, tags left off): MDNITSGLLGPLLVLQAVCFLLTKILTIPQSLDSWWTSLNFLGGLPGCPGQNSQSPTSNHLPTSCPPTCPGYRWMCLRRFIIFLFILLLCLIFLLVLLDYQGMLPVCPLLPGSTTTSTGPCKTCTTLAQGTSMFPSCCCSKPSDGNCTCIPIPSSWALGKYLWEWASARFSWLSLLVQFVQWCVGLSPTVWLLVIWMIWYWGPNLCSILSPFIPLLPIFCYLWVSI

[8] = target: genotype D S-HBs mutant protein N146S (hepatitis B virus genotype D, UniProt P03138 164-389); experiment: flow cytometry, S-HBs-transfected 293-F cells
[9] = target: T6, consensus S-HBs protein of HBV genotype A (ConsHBAg_A) (hepatitis B virus genotype A (consensus), UniProt P03141 175-400); experiment: flow cytometry, S-HBs-transfected 293-F cells
T6 construct: also called genotype A S-HBs

[10] = target: T2, consensus S-HBs protein of HBV genotype …; experiment: flow cytometry, S-HBs-transfected 293-F cells
[11] = target: T7, consensus S-HBs protein of HBV genotype B (ConsHBAg_B) (hepatitis B virus genotype B (consensus), UniProt Q9PWW3 175-400); experiment: flow cytometry, S-HBs-transfected 293-F cells
T7 construct: also called genotype B S-HBs

[12] = target: genotype D S-HBs mutant protein G145R (hepatitis B virus genotype D, UniProt P03138 164-389); experiment: flow cytometry, S-HBs-transfected 293-F cells
[13] = target: T8, consensus S-HBs protein of HBV genotype H (ConsHBAg_H) (hepatitis B virus genotype H (consensus), UniProt Q8JMZ6 175-400); experiment: flow cytometry, S-HBs-transfected 293-F cells
T8 construct: also called genotype H S-HBs
T8 sequence (Q8JMZ6 175-400, tags left off): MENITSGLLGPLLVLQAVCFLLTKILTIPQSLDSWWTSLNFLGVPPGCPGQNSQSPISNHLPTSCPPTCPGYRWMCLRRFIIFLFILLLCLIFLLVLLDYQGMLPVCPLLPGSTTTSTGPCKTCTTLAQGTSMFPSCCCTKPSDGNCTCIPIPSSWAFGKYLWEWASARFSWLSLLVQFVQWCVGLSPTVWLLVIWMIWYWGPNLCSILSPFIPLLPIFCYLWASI

[14] = target: genotype D S-HBs mutant protein T126A (hepatitis B virus genotype D, UniProt P03138 164-389); experiment: flow cytometry, S-HBs-transfected 293-F cells
[15] = target: T9, consensus S-HBs protein of HBV genotype D (ConsHBAg_D) (hepatitis B virus genotype D (consensus), UniProt P03138 164-389); experiment: flow cytometry, S-HBs-transfected 293-F cells
T9 construct: also called genotype D S-HBs; ConsD S-HBs

[16] = target: T10, Adw S-HBs protein (adw HBsAg particles, GenHevac (Adw)) (hepatitis B virus, adw subtype); experiment: ELISA on recombinant HBV vaccine particles
T10 construct: also called GenHevac-B

[17] = target: T11, Ayw S-HBs protein (ayw HBsAg particles, Engerix-B (Ayw)) (hepatitis B virus, ayw subtype); experiment: ELISA on recombinant HBV vaccine particles
[18] = target: T10, Adw S-HBs protein (adw HBsAg particles, …); experiment: ELISA, AUC of binding curve; parameters: unit not given beside the values
[19] = target: T11, Ayw S-HBs protein (ayw HBsAg particles, …); experiment: ELISA, AUC of binding curve; parameters: unit not given beside the values

Binder | HBV-gD in vitro neutralization (IC50 µg/ml) [1] | % of bound S-HBs-expressing cells [2] | % of bound S-HBs-expressing cells [3] | % of bound S-HBs-expressing cells [4] | % of bound S-HBs-expressing cells [5] | % of bound S-HBs-expressing cells [6] | % of bound S-HBs-expressing cells [7] | % of bound S-HBs-expressing cells [8] | % of bound S-HBs-expressing cells [9] | % of bound S-HBs-expressing cells [10] | % of bound S-HBs-expressing cells [11] | % of bound S-HBs-expressing cells [12] | % of bound S-HBs-expressing cells [13] | % of bound S-HBs-expressing cells [14] | % of bound S-HBs-expressing cells [15] | EC50 [16] | EC50 [17] | AUC (serotype binding) [18] | AUC (serotype binding) [19]
B1 | 3.87e-06 µg/mL | 66% | 83% | 71% | 82% | 67% | 73% | 67% | 88% | 85% | 83% | 60% | 77% | 71% | 89% | 27.7 ng/mL | 5.1 ng/mL | 36 | 37
B2 | 2.53e-05 µg/mL | 67% | 79% | 64% | 76% | 62% | 68% | 56% | 75% | 71% | 68% |  | 74% | 70% | 73% | 26.1 ng/mL | 12.3 ng/mL | 35 | 34
B3 | 2.95e-06 µg/mL |  |  |  | 1% |  | 46% |  | 21% |  |  |  | 55% |  |  | 8920 ng/mL | 4.8 ng/mL | 8 | 33
B4 | 3.96e-06 µg/mL |  |  |  |  |  |  |  |  |  |  |  |  |  |  |  |  |  | 
B5 | 2.51e-06 µg/mL | 56% | 60% | 52% | 72% | 54% | 66% | 55% | 65% | 68% | 64% | 0% | 67% | 55% | 71% | 8.9 ng/mL | 9.5 ng/mL | 35 | 36
